# T1: Fas receptor on Jurkat or HT-29 cells (human, UniProt P25445 26-335)
# T1 sequence (looked up): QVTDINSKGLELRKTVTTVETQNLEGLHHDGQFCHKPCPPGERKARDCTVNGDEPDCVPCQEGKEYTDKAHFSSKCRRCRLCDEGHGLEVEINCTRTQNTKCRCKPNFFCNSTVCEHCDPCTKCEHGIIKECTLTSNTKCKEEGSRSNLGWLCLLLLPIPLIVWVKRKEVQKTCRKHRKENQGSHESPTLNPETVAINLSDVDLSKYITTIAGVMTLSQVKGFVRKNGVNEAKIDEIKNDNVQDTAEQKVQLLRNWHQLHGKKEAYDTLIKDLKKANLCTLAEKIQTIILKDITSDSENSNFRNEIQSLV
# T2: full length TNF-gamma-beta on the cell surface of transfected cells (human, UniProt O95150 1-251)
# T2 construct: whole, on cells; also called TNF-gamma-beta expressing cells
# T2 sequence (looked up): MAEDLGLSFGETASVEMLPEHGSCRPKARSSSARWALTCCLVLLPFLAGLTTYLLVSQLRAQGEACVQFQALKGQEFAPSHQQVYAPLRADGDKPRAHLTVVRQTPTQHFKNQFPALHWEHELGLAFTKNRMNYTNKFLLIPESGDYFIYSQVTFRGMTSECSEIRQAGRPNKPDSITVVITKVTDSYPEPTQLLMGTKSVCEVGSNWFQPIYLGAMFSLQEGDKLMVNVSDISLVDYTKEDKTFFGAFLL
# T3: TNFR6 alpha-Fc (full length TNFR-6 alpha, amino acids 1-300 of SEQ ID NO:2, fused to an Fc domain) (human, UniProt O95407 30-300)
# T3 construct: Cloned as aa 1-300; disulfide-linked dimer; also called TR6-Fc; TNFR6-Fc; not shown: Fc domain of human IgG1
# T3 sequence: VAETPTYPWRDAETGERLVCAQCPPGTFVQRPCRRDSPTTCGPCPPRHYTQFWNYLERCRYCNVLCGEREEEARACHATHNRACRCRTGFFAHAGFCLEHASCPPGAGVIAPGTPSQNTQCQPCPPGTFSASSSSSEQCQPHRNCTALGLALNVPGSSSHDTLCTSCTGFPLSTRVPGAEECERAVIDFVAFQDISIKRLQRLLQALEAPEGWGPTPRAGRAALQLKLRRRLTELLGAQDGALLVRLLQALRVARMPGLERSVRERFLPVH
# T4: FLAG-tagged soluble TNF-gamma-beta (aa 72-251) (human, UniProt O95150 72-251)
# T4 construct: also called FLAG-TNF-gamma-beta; FLAG-TL1β
# T4 sequence: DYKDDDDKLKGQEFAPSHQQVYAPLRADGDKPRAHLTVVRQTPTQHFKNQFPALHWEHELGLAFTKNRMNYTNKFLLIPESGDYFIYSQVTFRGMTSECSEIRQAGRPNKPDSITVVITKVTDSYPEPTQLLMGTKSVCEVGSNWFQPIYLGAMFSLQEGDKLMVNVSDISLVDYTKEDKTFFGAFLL
# B1: TR2-Fc (extracellular domain of TR2, aa 1-192, fused to the Fc domain of human IgG1) (Fc fusion)
# chain: LPSCKEDEYPVGSECCPKCSPGYRVKEACGELTGTVCEPCPPGTYIAHLNGLSKCLQCQMCDPAMGLRASRNCSRTENAVCGCSPGHFCIVQDGDHCAACRAYATSSPGQRVQKGGTESQDTLCQNCPPGTFSPNGTLEECQHQTKCSWLVTKA
# notes: The range is as cloned; also called HveA-Fc; HveA; not shown: Fc domain of human IgG1
# B2: Soluble human FLAG-FasL (synthesized at HGS) (ligand)
# chain: DYKDDDDKQIGHPSPPPEKKELRKVAHLTGKSNSRSMPLEWEDTYGIVLLSGVKYKKGGLVINETGLYFVYSKVYFRGQSCNNLPLSHKVYMRNSKYPQDLVMMEGKMMSYCTTGQMWARSSYLGAVFNLTSADHLYVNVSELSLVNFEESQTFFGLYKL
# notes: Called trimerized in the BIAcore experiment; cross-linked with anti-FLAG antibody in the cell assays; also called FasL-Flag; trimerized FLAG-FasL
# B3: BCMA on transiently transfected cells (receptor, UniProt Q02223 1-184, looked up)
# chain: MLQMAGQCSQNEYFDSLLHACIPCQLRCSSNTPPLTCQRYCNASVTNSVKGTNAILWTCLGLSLIISLAVFVLMFLLRKINSEPLKDEFKNTGSGLLGMANIDLEKSRTGDEIILPRGLEYTVEECTCEDCIKSKPKVDSDHCFPLPAMEEGATILVTTKTNDYCKSLPAALSATEIEKSISAR
# notes: whole, on cells
# B4: Full-length human TR6 (without Fc) (receptor)
# chain: VAETPTYPWRDAETGERLVCAQCPPGTFVQRPCRRDSPTTCGPCPPRHYTQFWNYLERCRYCNVLCGEREEEARACHATHNRACRCRTGFFAHAGFCLEHASCPPGAGVIAPGTPSQNTQCQPCPPGTFSASSSSSEQCQPHRNCTALGLALNVPGSSSHDTLCTSCTGFPLSTRVPGAEECERAVIDFVAFQDISIKRLQRLLQALEAPEGWGPTPRAGRAALQLKLRRRLTELLGAQDGALLVRLLQALRVARMPGLERSVRERFLPVH
# notes: also called TR6-non-Fc; TR6 non-Fc
# Columns and labels:
# [1] = molecular target: T1, Fas receptor on Jurkat or HT-29 cells; assay: cell-based or functional assay
# [2] = molecular target: T2, full length TNF-gamma-beta on the cell …; assay: flow cytometry, receptor-Fc on HEK293F cells expressing full length TNF-gamma-beta
# Procedure: (§1) One million cells, in 0.1 ml of FACS buffer (PBS, 0.1% BSA, 0.1% NaN₃), were incubated with 0.1-1 microgram of protein or antibody at RT for 15 min. The cells were washed with 3 ml of FACS buffer, reacted with biotinylated primary antibody, and stained with PE-conjugated secondary antibody at RT for 15 min. Cells were then washed again, resuspended in 0.5 microgram/ml of propidium iodide, and live cells were gated and analyzed on a FACScan using the CellQuest software (BD Biosciences).
# [3] = molecular target: B4; assay: BIAcore, FasL-Flag soluble
# [4] = molecular target: T3, TNFR6 alpha-Fc (full length TNFR-6 …); assay: BIAcore, TR6-Fc immobilized, trimerized FLAG-FasL soluble
# [5] = molecular target: T4, FLAG-tagged soluble TNF-gamma-beta (aa …); assay: flow cytometry on transiently transfected cells
# Procedure: as §1
# [6] = molecular target: T2, full length TNF-gamma-beta on the cell …; assay: flow cytometry competition; competitor DR3-Fc
# Procedure: as §1
molecule,measurement,setting,value
sFas ligand (Alexis Corporation) with a FLAG epitope tag at its N-terminus (from UniProt P48023 103-281),"% Cells undergoing apoptosis (annexin/propidium iodide FACS, Jurkat cells), FasL (20 ng) alone (% cells undergoing apoptosis)",[1],8.87
same,"Jurkat cell viability (ALOMAR blue, OD 570 nm-630 nm) (% decrease in cell viability)",[1],50
B1,binding result,[2],no binding
B2,"Jurkat apoptosis (annexin staining, FACS)",[1],~7 fold
same,Kd,[3],17 nM
same,Kd,[4],4.6 nM
B3,binding result,[5],no binding
B4,molar ratio of TR6 to DR3-Fc at which no DR3-Fc binding was detected,[6],2 molar ratio (2:1)
